Data from US12630600B2 (MEDIMMUNE LIMITED, priority 2022, dated 2026).
Starred links: 1 amine or outer side, 2 acyl side, 3 side chain; linkers in the order of their positions; H or OH if unused. Non-standard residues stand in square brackets, D forms with d. Groups on a side chain read outwards from the residue. No end group written: not given here. *: point of attachment. C20 diacid = O=C(O)CCCCCCCCCCCCCCCCCCC(=O)*; C18 diacid = O=C(O)CCCCCCCCCCCCCCCCC(=O)*; γGlu = O=C(O)[C@H](CCC(=O)[*:2])N[*:1]; αMeF = C[C@](N)(Cc1ccccc1)C(=O)O; AEEA = NCCOCCOCC(=O)O; Aib = CC(C)(N)C(=O)O

B1: Peptide 507 (peptide)
peptide: H[Aib]QGTFTSDVSK[αMeF]LDTK([AEEA-AEEA-γGlu-C20 diacid])RARDFVAWLLE[Aib]G-NH2
B2: Peptide 508 (peptide)
peptide: H[Aib]QGTFTSDVSK[αMeF]LESK([AEEA-AEEA-γGlu-C20 diacid])RAQDFVRWLVE[Aib]G-NH2
modifications: N-terminus assumed
SMILES: CC(C)C[C@H](NC(=O)[C@H](Cc1c[nH]c2ccccc12)NC(=O)[C@H](CCCNC(=N)N)NC(=O)[C@@H](NC(=O)[C@H](Cc1ccccc1)NC(=O)[C@H](CC(=O)O)NC(=O)[C@H](CCC(N)=O)NC(=O)[C@H](C)NC(=O)[C@H](CCCNC(=N)N)NC(=O)[C@H](CCCCNC(=O)COCCOCCNC(=O)COCCOCCNC(=O)CC[C@H](NC(=O)CCCCCCCCCCCCCCCCCCC(=O)O)C(=O)O)NC(=O)[C@H](CO)NC(=O)[C@H](CCC(=O)O)NC(=O)[C@H](CC(C)C)NC(=O)[C@](C)(Cc1ccccc1)NC(=O)[C@H](CCCCN)NC(=O)[C@H](CO)NC(=O)[C@@H](NC(=O)[C@H](CC(=O)O)NC(=O)[C@H](CO)NC(=O)[C@@H](NC(=O)[C@H](Cc1ccccc1)NC(=O)[C@@H](NC(=O)CNC(=O)[C@H](CCC(N)=O)NC(=O)C(C)(C)NC(=O)[C@@H](N)Cc1c[nH]cn1)[C@@H](C)O)[C@@H](C)O)C(C)C)C(C)C)C(=O)N[C@H](C(=O)N[C@@H](CCC(=O)O)C(=O)NC(C)(C)C(=O)NCC(N)=O)C(C)C
B3: Peptide 505 (peptide)
peptide: H[Aib]QGTFTSDVSK[αMeF]LDTK([AEEA-AEEA-γGlu-C20 diacid])RAQDFVQWLLE[Aib]K-NH2
modifications: N-terminus assumed
SMILES: CC(C)C[C@H](NC(=O)[C@H](Cc1c[nH]c2ccccc12)NC(=O)[C@H](CCC(N)=O)NC(=O)[C@@H](NC(=O)[C@H](Cc1ccccc1)NC(=O)[C@H](CC(=O)O)NC(=O)[C@H](CCC(N)=O)NC(=O)[C@H](C)NC(=O)[C@H](CCCNC(=N)N)NC(=O)[C@H](CCCCNC(=O)COCCOCCNC(=O)COCCOCCNC(=O)CC[C@H](NC(=O)CCCCCCCCCCCCCCCCCCC(=O)O)C(=O)O)NC(=O)[C@@H](NC(=O)[C@H](CC(=O)O)NC(=O)[C@H](CC(C)C)NC(=O)[C@](C)(Cc1ccccc1)NC(=O)[C@H](CCCCN)NC(=O)[C@H](CO)NC(=O)[C@@H](NC(=O)[C@H](CC(=O)O)NC(=O)[C@H](CO)NC(=O)[C@@H](NC(=O)[C@H](Cc1ccccc1)NC(=O)[C@@H](NC(=O)CNC(=O)[C@H](CCC(N)=O)NC(=O)C(C)(C)NC(=O)[C@@H](N)Cc1c[nH]cn1)[C@@H](C)O)[C@@H](C)O)C(C)C)[C@@H](C)O)C(C)C)C(=O)N[C@@H](CC(C)C)C(=O)N[C@@H](CCC(=O)O)C(=O)NC(C)(C)C(=O)N[C@@H](CCCCN)C(N)=O
B4: Peptide 509 (peptide)
peptide: H[Aib]QGTFTSDVSK[αMeF]LESK([AEEA-AEEA-γGlu-C20 diacid])RAQDFVRWLL[Aib]TE-OH
modifications: N-terminus assumed
SMILES: CC(C)C[C@H](NC(=O)[C@H](Cc1c[nH]c2ccccc12)NC(=O)[C@H](CCCNC(=N)N)NC(=O)[C@@H](NC(=O)[C@H](Cc1ccccc1)NC(=O)[C@H](CC(=O)O)NC(=O)[C@H](CCC(N)=O)NC(=O)[C@H](C)NC(=O)[C@H](CCCNC(=N)N)NC(=O)[C@H](CCCCNC(=O)COCCOCCNC(=O)COCCOCCNC(=O)CC[C@H](NC(=O)CCCCCCCCCCCCCCCCCCC(=O)O)C(=O)O)NC(=O)[C@H](CO)NC(=O)[C@H](CCC(=O)O)NC(=O)[C@H](CC(C)C)NC(=O)[C@](C)(Cc1ccccc1)NC(=O)[C@H](CCCCN)NC(=O)[C@H](CO)NC(=O)[C@@H](NC(=O)[C@H](CC(=O)O)NC(=O)[C@H](CO)NC(=O)[C@@H](NC(=O)[C@H](Cc1ccccc1)NC(=O)[C@@H](NC(=O)CNC(=O)[C@H](CCC(N)=O)NC(=O)C(C)(C)NC(=O)[C@@H](N)Cc1c[nH]cn1)[C@@H](C)O)[C@@H](C)O)C(C)C)C(C)C)C(=O)N[C@@H](CC(C)C)C(=O)NC(C)(C)C(=O)N[C@H](C(=O)N[C@@H](CCC(=O)O)C(=O)O)[C@@H](C)O
B5: Peptide 504 (peptide)
peptide: H[Aib]QGTFTSDVSK[αMeF]LESK([AEEA-AEEA-γGlu-C20 diacid])RAQDFVRWLLE[Aib]K-OH
modifications: N-terminus assumed
SMILES: CC(C)C[C@H](NC(=O)[C@H](Cc1c[nH]c2ccccc12)NC(=O)[C@H](CCCNC(=N)N)NC(=O)[C@@H](NC(=O)[C@H](Cc1ccccc1)NC(=O)[C@H](CC(=O)O)NC(=O)[C@H](CCC(N)=O)NC(=O)[C@H](C)NC(=O)[C@H](CCCNC(=N)N)NC(=O)[C@H](CCCCNC(=O)COCCOCCNC(=O)COCCOCCNC(=O)CC[C@H](NC(=O)CCCCCCCCCCCCCCCCCCC(=O)O)C(=O)O)NC(=O)[C@H](CO)NC(=O)[C@H](CCC(=O)O)NC(=O)[C@H](CC(C)C)NC(=O)[C@](C)(Cc1ccccc1)NC(=O)[C@H](CCCCN)NC(=O)[C@H](CO)NC(=O)[C@@H](NC(=O)[C@H](CC(=O)O)NC(=O)[C@H](CO)NC(=O)[C@@H](NC(=O)[C@H](Cc1ccccc1)NC(=O)[C@@H](NC(=O)CNC(=O)[C@H](CCC(N)=O)NC(=O)C(C)(C)NC(=O)[C@@H](N)Cc1c[nH]cn1)[C@@H](C)O)[C@@H](C)O)C(C)C)C(C)C)C(=O)N[C@@H](CC(C)C)C(=O)N[C@@H](CCC(=O)O)C(=O)NC(C)(C)C(=O)N[C@@H](CCCCN)C(=O)O
B6: Peptide 510 (peptide)
peptide: H[Aib]QGTFTSDVSK[αMeF]LDTK([AEEA-AEEA-γGlu-C20 diacid])RARDFVRWLL[Aib]E-OH
modifications: N-terminus assumed
SMILES: CC(C)C[C@H](NC(=O)[C@H](Cc1c[nH]c2ccccc12)NC(=O)[C@H](CCCNC(=N)N)NC(=O)[C@@H](NC(=O)[C@H](Cc1ccccc1)NC(=O)[C@H](CC(=O)O)NC(=O)[C@H](CCCNC(=N)N)NC(=O)[C@H](C)NC(=O)[C@H](CCCNC(=N)N)NC(=O)[C@H](CCCCNC(=O)COCCOCCNC(=O)COCCOCCNC(=O)CC[C@H](NC(=O)CCCCCCCCCCCCCCCCCCC(=O)O)C(=O)O)NC(=O)[C@@H](NC(=O)[C@H](CC(=O)O)NC(=O)[C@H](CC(C)C)NC(=O)[C@](C)(Cc1ccccc1)NC(=O)[C@H](CCCCN)NC(=O)[C@H](CO)NC(=O)[C@@H](NC(=O)[C@H](CC(=O)O)NC(=O)[C@H](CO)NC(=O)[C@@H](NC(=O)[C@H](Cc1ccccc1)NC(=O)[C@@H](NC(=O)CNC(=O)[C@H](CCC(N)=O)NC(=O)C(C)(C)NC(=O)[C@@H](N)Cc1c[nH]cn1)[C@@H](C)O)[C@@H](C)O)C(C)C)[C@@H](C)O)C(C)C)C(=O)N[C@@H](CC(C)C)C(=O)NC(C)(C)C(=O)N[C@@H](CCC(=O)O)C(=O)O
B7: Peptide 506 (peptide)
peptide: H[Aib]QGTFTSDVSK[αMeF]LDTK([AEEA-AEEA-γGlu-C20 diacid])RARDFVAWLLE[Aib]G-OH
modifications: N-terminus assumed
SMILES: CC(C)C[C@H](NC(=O)[C@H](Cc1c[nH]c2ccccc12)NC(=O)[C@H](C)NC(=O)[C@@H](NC(=O)[C@H](Cc1ccccc1)NC(=O)[C@H](CC(=O)O)NC(=O)[C@H](CCCNC(=N)N)NC(=O)[C@H](C)NC(=O)[C@H](CCCNC(=N)N)NC(=O)[C@H](CCCCNC(=O)COCCOCCNC(=O)COCCOCCNC(=O)CC[C@H](NC(=O)CCCCCCCCCCCCCCCCCCC(=O)O)C(=O)O)NC(=O)[C@@H](NC(=O)[C@H](CC(=O)O)NC(=O)[C@H](CC(C)C)NC(=O)[C@](C)(Cc1ccccc1)NC(=O)[C@H](CCCCN)NC(=O)[C@H](CO)NC(=O)[C@@H](NC(=O)[C@H](CC(=O)O)NC(=O)[C@H](CO)NC(=O)[C@@H](NC(=O)[C@H](Cc1ccccc1)NC(=O)[C@@H](NC(=O)CNC(=O)[C@H](CCC(N)=O)NC(=O)C(C)(C)NC(=O)[C@@H](N)Cc1c[nH]cn1)[C@@H](C)O)[C@@H](C)O)C(C)C)[C@@H](C)O)C(C)C)C(=O)N[C@@H](CC(C)C)C(=O)N[C@@H](CCC(=O)O)C(=O)NC(C)(C)C(=O)NCC(=O)O
B8: Peptide 512 (peptide)
peptide: H[Aib]QGT[αMeF]TSDVSK[αMeF]LDTK([AEEA-AEEA-γGlu-C18 diacid])RAQD[αMeF]VRWLLA[Aib]G-NH2
modifications: N-terminus assumed
SMILES: CC(C)C[C@H](NC(=O)[C@H](CC(C)C)NC(=O)[C@H](Cc1c[nH]c2ccccc12)NC(=O)[C@H](CCCNC(=N)N)NC(=O)[C@@H](NC(=O)[C@](C)(Cc1ccccc1)NC(=O)[C@H](CC(=O)O)NC(=O)[C@H](CCC(N)=O)NC(=O)[C@H](C)NC(=O)[C@H](CCCNC(=N)N)NC(=O)[C@H](CCCCNC(=O)COCCOCCNC(=O)COCCOCCNC(=O)CC[C@H](NC(=O)CCCCCCCCCCCCCCCCC(=O)O)C(=O)O)NC(=O)[C@@H](NC(=O)[C@H](CC(=O)O)NC(=O)[C@H](CC(C)C)NC(=O)[C@](C)(Cc1ccccc1)NC(=O)[C@H](CCCCN)NC(=O)[C@H](CO)NC(=O)[C@@H](NC(=O)[C@H](CC(=O)O)NC(=O)[C@H](CO)NC(=O)[C@@H](NC(=O)[C@](C)(Cc1ccccc1)NC(=O)[C@@H](NC(=O)CNC(=O)[C@H](CCC(N)=O)NC(=O)C(C)(C)NC(=O)[C@@H](N)Cc1c[nH]cn1)[C@@H](C)O)[C@@H](C)O)C(C)C)[C@@H](C)O)C(C)C)C(=O)N[C@@H](C)C(=O)NC(C)(C)C(=O)NCC(N)=O

Each binder was assayed against human glucagon receptor (human, UniProt P47871) (assay: cell-based or functional assay).

Row | Binder | cAMP production EC50
1 | B1 | 86.6 pM
2 | B2 | 2800 pM
3 | B3 | 191 pM
4 | B4 | 3020 pM
5 | B5 | 551 pM
6 | B6 | 118 pM
7 | B7 | 149 pM
8 | B8 | 2310 pM

These binders were tested against human GLP-1 receptor (human, UniProt P43220) (assay: cell-based or functional assay).

Row | Binder | cAMP production EC50
9 | B1 | 52.9 pM
10 | B2 | 67.9 pM
11 | B3 | 42.1 pM
12 | B4 | 594 pM
13 | B5 | 124 pM
14 | B6 | 176 pM
15 | B7 | 162 pM
16 | B8 | 159 pM
